# Measured values as given in patent US20060094111, “DNA containing variant FRT sequences” (published 2006).
# Numbering of substitutions follows the chain as printed.
# T1: FLP recombinase (Saccharomyces cerevisiae, UniProt P03870 P03870:1-423)
# T1 sequence: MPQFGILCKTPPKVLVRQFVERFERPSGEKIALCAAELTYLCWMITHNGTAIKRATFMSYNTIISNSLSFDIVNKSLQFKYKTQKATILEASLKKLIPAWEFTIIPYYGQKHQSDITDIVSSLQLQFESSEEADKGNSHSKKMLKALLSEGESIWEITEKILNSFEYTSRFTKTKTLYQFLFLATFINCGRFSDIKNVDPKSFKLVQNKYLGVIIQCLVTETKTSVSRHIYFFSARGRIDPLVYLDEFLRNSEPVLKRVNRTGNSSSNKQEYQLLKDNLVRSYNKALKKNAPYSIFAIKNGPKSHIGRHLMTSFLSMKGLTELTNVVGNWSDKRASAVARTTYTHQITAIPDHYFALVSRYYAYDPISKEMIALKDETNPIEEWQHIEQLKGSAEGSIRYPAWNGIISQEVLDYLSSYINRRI
# B1: f72 mutant FRT (dsDNA)
# DNA 1: TCGAGGACGTCGAAGTTCCTATACTTTCTACAGAATAGGAACTTCTCCGGAA
# DNA 2: CTAGTTCCGGAGAAGTTCCTATTCTGTAGAAAGTATAGGAACTTCGACGTCC
# B2: f2262 mutant FRT (dsDNA)
# DNA 1: B1 DNA 1 with T26A, A30T, C31G
# DNA 2: B1 DNA 2 with G26C, T27A, A31T
# B3: F3 mutant FRT (dsDNA)
# DNA 1: B1 DNA 1 with T26A, C28T, A30G, C31A
# DNA 2: B1 DNA 2 with G26T, T27C, G29A, A31T
# B4: f2151 mutant FRT (dsDNA)
# DNA 1: B1 DNA 1 with T26C, T29C, C31G
# DNA 2: B1 DNA 2 with G26C, A28G, A31G
# B5: f61 mutant FRT (dsDNA)
# DNA 1: B1 DNA 1 with A30G, C31G
# DNA 2: B1 DNA 2 with G26C, T27C
# B6: f2161 mutant FRT (dsDNA)
# DNA 1: B1 DNA 1 with T26C, A30G, C31G
# DNA 2: B1 DNA 2 with G26C, T27C, A31G
# Biological target: T1, FLP recombinase
# Test: recombination of two identical sites; same buffer
# Details: tags: untagged; expressed from recombinant adenovirus AxCAFLP (2 micron DNA FLP gene) in 293 cells; chain copies: 4
# Method: Whether or not FLP-dependent recombination reaction caused between the two mutant FRT sequences was studied by the assay described below. The DraI-digested plasmid DNA (1.5 μg) prepared in Example 2 and the cell extract containing FLP (25 μl) prepared in Example 1 were added to buffer containing 50 mM Tris-HCl (pH 7.5)/10 mM MgCl₂/5 mM DTT in its final concentration (the volume of reaction solution: 50 μl), and the reaction mixture was incubated at 30° C. for 30 minutes. After the termination of the reaction, 200 μl of sterilized water and 50 […] of 20 mM EDTA solution (pH 8.0) were added to the reaction mixture. The reaction mixture was extracted with phenol/chloroform and with chloroform. The resulting product was precipitated with ethanol, to obtain DNA. The resulting DNA was then solubilized in 20 μl of TE buffer (pH 8.0) containing RNaseA (20 μg/ml). Next, an entire volume of the resultant was digested with restriction enzyme NcoI, and subjected to electrophoresis on agarose gel. Thereafter, DNA bands detected by ethidium bromide (EtBr) staining were analyzed.
# In order to numerically express the reaction efficiency, the ratio of […] was calculated as the recombination ratio (%) between the two FRT sequences.
row,Binder,activity
1,B1,10.9%
2,B2,3.8%
3,B3,3.1%
4,B4,2.9%
5,B5,2.6%
6,B6,4.5%
